Values quoted from earlier work in publication PMC3423493.

Key:
[1] = target: Sclerostin (Homo sapiens) (UniProt Q9BQB4)
[2] = target: BMP2 (Homo sapiens) (UniProt P12643)
Chain of UniProt P12643 (P12643 283-396): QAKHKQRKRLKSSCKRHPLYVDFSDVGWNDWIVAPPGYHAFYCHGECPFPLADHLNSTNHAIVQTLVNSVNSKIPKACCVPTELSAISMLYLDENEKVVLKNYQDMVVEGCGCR

Chain of UniProt Q9BQB4 (Q9BQB4 24-213): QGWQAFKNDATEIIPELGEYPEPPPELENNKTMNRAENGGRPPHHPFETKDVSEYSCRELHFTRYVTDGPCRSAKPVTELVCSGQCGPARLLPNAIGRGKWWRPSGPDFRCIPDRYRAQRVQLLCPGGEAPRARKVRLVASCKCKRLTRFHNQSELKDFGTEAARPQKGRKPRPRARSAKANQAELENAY

For Noggin (from UniProt Q13253), the Kd [1] is listed as 2.92 nM and the Kd [2] is listed as 0.02 nM.
